# Test results taken from PMC2532715.
# T1: SgrAI restriction endonuclease (UniProt Q9F6L0 1-338)
# T1 sequence: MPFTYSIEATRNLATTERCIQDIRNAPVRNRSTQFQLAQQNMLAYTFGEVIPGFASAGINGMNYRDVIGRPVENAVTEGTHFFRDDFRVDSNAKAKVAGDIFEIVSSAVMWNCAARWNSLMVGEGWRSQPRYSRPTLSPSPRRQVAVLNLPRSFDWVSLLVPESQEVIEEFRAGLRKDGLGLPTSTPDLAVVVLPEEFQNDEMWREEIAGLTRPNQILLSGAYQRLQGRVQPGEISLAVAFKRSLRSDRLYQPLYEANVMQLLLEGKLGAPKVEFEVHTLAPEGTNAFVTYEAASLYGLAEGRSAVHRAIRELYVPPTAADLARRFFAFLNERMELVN
# B1: Cognate 18 (dsDNA)
# DNA 1: GAGTCCACCGGTGGACTC
# DNA 2: GAGTCCACCGGTGGACTC
# Molecular target: T1, SgrAI restriction endonuclease
# Test: X-ray crystallography
binder,measurement,value
B1,binding result,binds
